Source: publication PMC7610479

Assays:
[1] = target: recombinant SMN (Survival Motor Neuron protein) (UniProt Q16637); assay: SPR
[2] = target: Survival Motor Neuron (SMN) protein, recombinant (UniProt Q16637); assay: SPR

| Substance | Kd [1] [pM] | koff [1] [s⁻¹] | kon [1] [M⁻¹ s⁻¹] | Kd [2] [pM] |
| --- | --- | --- | --- | --- |
| purified SMN-free 80S ribosomes from NSC-34 cells depleted of SMN (complex) | 9.8 | 9.4e-05 | 9.7e+06 |  |
| purified SMN-free 80S ribosomes from NSC-34 cells depleted from SMN (from UniProt P61255 1-145) (complex) |  |  |  | 10 |
